Measurements taken from article PMC4468861.

Target: N-terminally GST-tagged M. jannaschii SR(aa93-408) (M. jannaschii) (UniProt Q57739)
Chain of UniProt Q57739 (Q57739 93-408): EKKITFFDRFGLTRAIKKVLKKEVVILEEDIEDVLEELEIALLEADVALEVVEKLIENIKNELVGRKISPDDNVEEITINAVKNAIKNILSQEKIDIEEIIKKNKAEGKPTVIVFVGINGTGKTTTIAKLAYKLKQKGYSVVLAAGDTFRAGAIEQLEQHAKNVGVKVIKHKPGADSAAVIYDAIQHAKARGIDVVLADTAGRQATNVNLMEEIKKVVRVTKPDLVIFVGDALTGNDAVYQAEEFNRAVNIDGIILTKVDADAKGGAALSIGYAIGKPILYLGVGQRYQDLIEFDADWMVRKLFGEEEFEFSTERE

GTPase rate of the SRP-SR complex in multiple turnover reactions (0.5 uM SRP, SR 0-25 uM, 25 °C), against SRP complexes containing SRP54-ss as the text prints (fl-SRP54 by the legend of Fig. 1b): 20 fold
Substance: M. jannaschii SRP core complex containing fl-SRP54-ss, SRP19 and SRP RNA (from UniProt Q57565 1-451; Q58440 1-87)
